From patent US6858210B1, “Therapeutic and diagnostic domain 1 β2GPI polypeptides and methods of using same” (La Jolla Pharmaceutical Co., priority 1998, dated 2005)
Read-outs that look alike come from different tables or passages of the source.

B1: --345: recombinant β2GPI deletion mutant with domains 3, 4, 5 (protein)
chain: GRIICPPPSIPTFATLRVYKPSAGNNSLYRDTAVFECLPQHAMFGNDTITCTTHGNWTKLPECREVKCPFPSRPDNGFVNYPAKPTLYYKDKATFGCHDGYSLDGPEEIECTKLGNWSAMPSCKASCKLPVKKATVVYQGERVKIQEKFKNGMLHGDKVSFFCKNKEKKCSYTEDAQCIDGTIEVPKCFKEHSSLAFWKTDASDVKPCGHHHHHH
B2: 1234-: recombinant β2GPI deletion mutant with domains 1, 2, 3, 4 (protein)
chain: GRTCPKPDDLPFSTVVPLKTFYEPGEEITYSCKPGYVSRGGMRKFICPLTGLWPINTLKCTPRVCPFAGILENGAVRYTTFEYPNTISFSCNTGFYLNGADSAKCTEEGKWSPELPVCAPIICPPPSIPTFATLRVYKPSAGNNSLYRDTAVFECLPQHAMFGNDTITCTTHGNWTKLPECREVKCPFPSRPDNGFVNYPAKPTLYYKDKATFGCHDGYSLDGPEEIECTKLGNWSAMPSCGHHHHHH

Assays:
[1] = tested on: affinity purified β2GPI-dependent antiphospholipid antibody; assay: Competitive inhibition ELISA: recombinant β2GPI proteins compete for antibody binding to coated full length recombinant β2GPI; set-up: species or system human; settings: for IC50: read-out: 50% (concentration to give 50% inhibition)
Method: Microtiter plates (MaxiSorp™, Nalge Nunc International, Denmark) were coated with 50 μl of full length recombinant β2GPI at 10 μg/ml in 0.1 M bicarbonate, pH 9.5, incubated overnight at 4° C., washed three times with 0.15 M PBS, pH 7.2, and blocked for one hour at room temperature with 75 μl of 2% Non-fat Dried Milk (Carnation, 2% NFDM). Test inhibitors were diluted in 2% NFDM and 25 μl of each dilution was added to coated wells. Affinity purified β2GPI-dependent antiphospholipid antibody was diluted in 2% NFDM and 25 μl, of a constant concentration, was added to the wells, including a group of wells that had no inhibitor, which acted as the positive controls. The contents of the wells were mixed and the plates were incubated at 37° C. for one hour. The plates were washed three times with PBS, 50 μl of alkaline phosphatase conjugated anti-human IgG, gamma chain specific, (Zymed #62-8422) diluted appropriately in 2% NFDM was added and incubated at 37° C. for one hour. The plates were washed three times with PBS, 50 μl of alkaline phosphatase PPMP chromogenic substrate solution was added and incubated for 30 minutes, at room temperature. The Optical Density, at 550 nm, was determined by reading the plates in a microplate autoreader (Bio-Teck Instruments, model EL3 11). The percent inhibition was determined by dividing the OD550 obtained in the presence of inhibitor by the mean OD550 obtained from the wells without inhibitor and then multiplying by 100 (more particularly, [mean A550 obtained from control wells without inhibitor less A550 of background] minus [A550 obtained in presence of inhibitor less A550 of background] divided by [mean A550 obtained from control wells without inhibitor less A550 of background] times 100).
Seven to nine different recombinant β2GPI mutant proteins were used to determine the antigenic specificity of affinity purified β2GPI-dependent antiphospholipid antibody preparations from 13 different patients. Each mutant recombinant β2GPI protein was tested, in a dose dependent fashion, for its ability to inhibit affinity purified β2GPI-dependent antiphospholipid antibody from binding to full length recombinant β2GPI. The following values were also observed for domain 1 only recombinant protein (1 - - - -; see Table 2 for designations): […]

[2] = tested on: affinity purified β2GPI-dependent antiphospholipid antibody; assay: Direct binding ELISA, nickel chelate-coated wells charged with recombinant β2GPI proteins (no cardiolipin); set-up: species or system human; settings: O.D. at 550 nm
Method: (§1) Nickel Chelate-coated microwell plates (NCP 010 00 Xenopore Corp. 374 Midland Ave. Saddle Brook, N.J. USA) were coated with 50 μl of serial dilutions of the various recombinant β2GPI, in PBS, at room temperature for 2 hours. The plates were washed three times with PBS and blocked with 75 μl of a 1% gelatin (Sigma #G-2500) in PBS for one hour room temperature. […] The plates were washed three times with PBS, 50 μl of alkaline phosphatase conjugated anti-immunoglobulin (anti-human IgG, gamma chain specific, Zymed #62-8422) or anti-rabbit IgG (Zymed #62-6122) diluted appropriately in 1% gelatin was added and incubated at 37° C. for one hour. The plates were washed three times with PBS, 50 μl of alkaline phosphatase PPMP chromogenic substrate solution was added and incubated for 30 minutes at room temperature. The optical density, at 550 nm, was determined by reading the plates in a microplate autoreader (Bio-Teck Instruments, model EL311).
(§2) Seven to nine different recombinant β2GPI mutant proteins were examined to determine if they could support the direct binding of affinity purified β2GPI-dependent antiphospholipid antibody preparations in the absence of anionic phospholipid. All recombinant mutant β2GPI were assayed with affinity purified β2GPI-dependent antiphospholipid antibody preparations from 11 different patients. Each mutant recombinant β2GPI protein was tested, in a dose dependent fashion and GST-6his was included as a negative control. The recombinant mutant β2GPI proteins were bound to nickel coated microtiter plates via their 6-his tail. All recombinant mutant β2GPI proteins tested bound rabbit anti-β2GPI showing that they were assessable by antibody (FIG. 5).

rabbit anti-β2GPI = assay: Direct binding ELISA, nickel chelate-coated wells, rabbit antibody; settings: O.D. at 550 nm
Method: as §1, §2

| Molecule | Max (maximum inhibition observed at concentrations tested) ([1]; Ab 6203) [%] | IC50 ([1]; Ab 6203) [µM] | Max (maximum inhibition observed at concentrations tested) ([1]; Ab 6501) [%] | IC50 ([1]; Ab 6501) [µM] | Max (maximum inhibition observed at concentrations tested) ([1]; Ab 6509) [%] | IC50 ([1]; Ab 6509) [µM] | Max (maximum inhibition observed at concentrations tested) ([1]; Ab 6626) [%] | IC50 ([1]; Ab 6626) [µM] | Max (maximum inhibition observed at concentrations tested) ([1]; Ab 6632) [%] | IC50 ([1]; Ab 6632) [µM] | Max (maximum inhibition observed at concentrations tested) ([1]; Ab 6641) [%] | IC50 ([1]; Ab 6641) [µM] | Max (maximum inhibition observed at concentrations tested) ([1]; Ab 6644) [%] | IC50 ([1]; Ab 6644) [µM] | Max (maximum inhibition observed at concentrations tested) ([1]; Ab 6652) [%] | IC50 ([1]; Ab 6652) [µM] | Max (maximum inhibition observed at concentrations tested) ([1]; Ab 6701) [%] | IC50 ([1]; Ab 6701) [µM] | Max (maximum inhibition observed at concentrations tested) ([1]; Ab 7008) [%] | IC50 ([1]; Ab 7008) [µM] | other results |
| --- | --- | --- | --- | --- | --- | --- | --- | --- | --- | --- | --- | --- | --- | --- | --- | --- | --- | --- | --- | --- | --- |
| B1 | 10 | > 50 | 15 | > 50 | 20 | > 15 | 20 | > 50 | 20 | > 50 | 10 | > 15 | 10 | > 50 | 30 | > 15 | 20 | > 15 | 20 | > 50 | Max (maximum inhibition observed at concentrations tested) ([1]; Ab 7015): 10%; IC50 ([1]; Ab 7015): > 50 µM; Max (maximum inhibition observed at concentrations tested) ([1]; Ab 7101): 5%; IC50 ([1]; Ab 7101): > 50 µM; Max (maximum inhibition observed at concentrations tested) ([1]; Ab 7104): 20%; IC50 ([1]; Ab 7104): > 50 µM; Maximum O.D. ([2]; Ab 6203): 0.072; Maximum O.D. ([2]; Ab 6501): 0.030; Maximum O.D. ([2]; Ab 6626): 0.022; Maximum O.D. ([2]; Ab 6632): 0.004; Maximum O.D. ([2]; Ab 6641): 0.019; Maximum O.D. ([2]; Ab 6644): 0.048; Maximum O.D. ([2]; Ab 6652): 0.016; Maximum O.D. ([2]; Ab 6701): 0.002; Maximum O.D. ([2]; Ab 7008): 0.018; Maximum O.D. ([2]; Ab 7015): 0.042; Maximum O.D. ([2]; Ab 7101): 0.042; Maximum O.D. (rabbit anti-β2GPI): 1.993 |
| B2 | 30 | > 8 | 30 | > 8 | 80 | 3 | 40 | > 8 | 60 | 2 | 60 | 2 | 50 | 8 | 100 | 0.5 | 30 | > 8 | 50 | > 8 | Max (maximum inhibition observed at concentrations tested) ([1]; Ab 7015): 50%; IC50 ([1]; Ab 7015): 8 µM; Max (maximum inhibition observed at concentrations tested) ([1]; Ab 7101): 20%; IC50 ([1]; Ab 7101): > 8 µM; Max (maximum inhibition observed at concentrations tested) ([1]; Ab 7104): 90%; IC50 ([1]; Ab 7104): 0.7 µM; Maximum O.D. ([2]; Ab 6203): 0.668; Maximum O.D. ([2]; Ab 6501): 0.628; Maximum O.D. ([2]; Ab 6626): 0.563; Maximum O.D. ([2]; Ab 6632): 0.003; Maximum O.D. ([2]; Ab 6641): 0.145; Maximum O.D. ([2]; Ab 6644): 0.768; Maximum O.D. ([2]; Ab 6652): 0.135; Maximum O.D. ([2]; Ab 6701): 0.715; Maximum O.D. ([2]; Ab 7008): 0.149; Maximum O.D. ([2]; Ab 7015): 0.454; Maximum O.D. ([2]; Ab 7101): 0.843; Maximum O.D. (rabbit anti-β2GPI): 1.708 |
